# Measurements: patent publication US20240150473A1, “MODULATION OF WNT SIGNALING IN GASTROINTESTINAL DISORDERS” (Surrozen Operating, Inc., priority 2021, published 2024)
# What was measured:
# [1] = tested on: colon tissue markers (ZO-1, Ki67, Axin2, Cdkn3, S100A9, CD45); assay: RNA in situ hybridization and immunohistochemistry/immunofluorescence of colon tissue, DSS model; format: in vivo, mouse; details: day 10 of the DSS model
# Source text: Expression of mRNA was detected by RNAscope in situ hybridization (ACD Bio). RNAscope probes used are listed below. For colorimetric visualization, standard RNAscope® 2.5 HD Assay-Red protocol (www.acdbio.com) was followed, and images were acquired on a Leica DMi8 microscope equipped with a DFC7000T color camera. For fluorescent RNAscope in situ hybridization, standard RNAscope Multiplex Fluorescent Reagent Kit v2 Assay protocol was followed (ACD Bio Document #323100-USM) and coupled with the TSA Plus Cyanine 3 and 5 Systems. Fluorescent images were acquired with a Leica Thunder imaging system.
# In brief, five-micron thick formalin fixed paraffin embedded tissue sections on slides were deparaffinized followed by citrate buffer (pH 6) antigen retrieval in a steamer. Slides were then washed thoroughly in tap water followed by 1× wash in PBST. Subsequently, tissue sections were blocked with serum free protein block (Agilent, X090930-2) for one hour at room temperature followed by incubation in primary antibodies. After primary antibody incubation, tissue sections were washed in 0.1% TX-100 in PBS (PBST) at least three times followed by incubation in secondary antibody. Afterwards, tissue sections were washed with PBST, and coverslips were mounted with Vectashield Vibrance antifade mounting medium with DAPI (Vector Laboratories, H-1800).
# [2] = tested on: Mouse small intestinal organoids; assay: Organoid culture and proliferation assay; format: cell-based; details: organoids treated with Porcupine inhibitor IWP2
# Method: Mouse small intestinal organoids were maintained in mouse IntestiCult™ Organoid Growth Medium ([…] technologies) and passaged once a week until the date of assay for Wnt mimetic activity (H. Chen, Lu, Lee, & Li, 2020). To assay for organoid proliferation, organoids were dissociated with Gentle Cell Dissociation Reagent ([…] technologies) for 10 min with shaking, washed 2× in cold PBS (Gibco) and resuspended 1:1 in Matrigel (Corning) on ice. 25 ul of cell resuspension in Matrigel was seeded to the center of each well on a prewarmed 48-well tissue culture plate and let solidify for 5 min at 37 degrees. 300 ul of Basal Media (Table 10), Basal Media+IWP2+anti-βGal or Basal Media+IWP2+Wnt mimetic was applied to the wells. Each condition included 5-6 repeats. Media and treatments were changed once on Day 4 after plating. Images of the 3D cultured organoids were acquired on Day 7.
# Mouse small intestinal organoids were treated with the Porcupine inhibitor IWP2 to inhibit endogenous Wnt ligand secretion in the cultured organoid. When these organoids were subject to no protein treatment or were treated with a control anti-β-gal IgG, the organoids were not maintained and quickly degenerated.
# [3] = tested on: DSS induced acute colitis in C57BL6/J mice; assay: DSS induced acute colitis model; format: in vivo, mouse
# Method: 7- to 8-week-old female C57BL6/J mice were fed with 4% (wt/vol) Dextran Sulfate Sodium (DSS, MP Biomedicals, molecular weight 36-50 kDa, Ref #160110) in drinking water from day 1 to day 7 to induce colitis and were switched to 1% DSS from day 8. […] Animals were terminated on day 10, allowing a 6-day course of protein treatment, and the colon was harvested for histology and RT-qPCR. […] The disease activity index (DAI) was calculated based on the average score of weight loss, stool consistency and the degree of intestinal bleeding (Wirtz Stefan et al., 2017). Scoring system by grading was on a scale of 0 to 4 using the following parameters: loss of weight (0, 0-1%; 1, 1-6%; 2, 6-12%; 3, 12-18%; 4, >18%), stool consistency (0, normal; 1, soft but still formed; 2, soft; 3, very soft, wet; 4, watery diarrhea) and intestine bleeding (0-1, negative hemoccult; 2, positive hemoccult; 3, blood traces in stool visible; 4, gross rectal bleeding).
# Small intestine and colon were extracted and, after removing fecal content, weighted and length measured. The desired small intestine segments (duodenum, jejunum, ileum) and colon segments (ascending, transverse and descending colon) were cut out and fixed directly in 10% neutral buffered formalin (NBF) overnight. Tissues were then transferred to 70% ethanol before paraffin embedding. Paraffin tissue blocks were then sectioned to […] thickness and stained with hematoxylin and eosin (H&E) for histology analysis. Pathology reading was performed by an independent pathologist.
# […] Groups of mice were either untreated, treated with an isotype control antibody (anti-GFP), or treated with the indicated engineered Wnt agonist once on day 4 or twice on day 4 and 7. […]
# The 123 mice total were grouped: (Day3=13, day4=13, day5=26, day6=24, day7=26, day10=21), with 91 used for histology endpoints, and 21 for scRNA-seq (group eliminated because of machinery). Daily food intake, BW, fecal score, and occult blood were measured. […]
Molecule,Ki67 expression in duodenum and colon [1],organoid proliferation and growth [2],"histology (colitis) score ([3]; two doses day 4 and day 7, evaluated day 10, reduced from 4.75, see WO 2020/185960A1)","crypt architecture and tissue inflammation ([3]; two doses day 4 and day 7, evaluated day 10, versus PBS or anti-GFP)",repair of damaged colon epithelium / colon histology ([3]; IP twice weekly or daily starting on day 4 of DSS)
"R2M3-26: Fzd1,2,5,7,8 pan specific Wnt mimetic targeting FZD1,2,5,7,8 and LRP6 (protein) light: DVQLVESGGGLVQAGGSLRLACAGSGRIFAIYDIAWYRHPPGNQRELVAMIRPVVTEIDYADSVKGRFTISRNNAMKTVYLQMNNLKPEDTAVYYCNAKRPWGSRDEYWGQGTQVTVSSGSGSGQAVVLQEPSLSVSPGGTVTLTCGLSSGSVSTNYYPSWYQQTPGQAPRTLIYYTNTRSSDVPERFSGSIVGNKAALTITGAQPDDESVYFCLLYLGRGIWVFGGGTKLTVLGQPKAAPSVTLFPPSSEELQANKATLVCLISDFYPGAVTVAWKADSSPVKAGVETTTPSKQSNNKYAASSYLSLTPEQWKSHRSYSCQVTHEGSTVEKTVAPTECS heavy: EVQLVQSGAEVKKPGASVKVSCKASGYTFTSYGISWVRQAPGQGLEWMGWISAYNGNTNYAQKLQGRVTMTTDTSTSTAYMELRSLRSDDTAVYYCASSKEKATYYYGMDVWGQGTTVTVSSASTKGPSVFPLAPSSKSTSGGTAALGCLVKDYFPEPVTVSWNSGALTSGVHTFPAVLQSSGLYSLSSVVTVPSSSLGTQTYICNVNHKPSNTKVDKKVEPKSCDKTHTCPPCPAPEAAGGPSVFLFPPKPKDTLMISRTPEVTCVVVDVSHEDPEVKFNWYVDGVEVHNAKTKPREEQYNSTYRVVSVLTVLHQDWLNGKEYKCKVSNKALGAPIEKTISKAKGQPREPQVYTLPPSREEMTKNQVSLTCLVKGFYPSDIAVEWESNGQPENNYKTTPPVLDSDGSFFLYSKLTVDKSRWQQGNVFSCSVMHEALHNHYTQKSLSLSPGK",did not lead to an expansion of Ki67,able to stimulate cell proliferation,2.0,restored crypt architecture with less tissue inflammation,–
"RSPO2: R-spondin 2, ligand that amplifies WNT signals (protein, UniProt Q6UXX9 22-243, looked up) R-spondin-2: QGNRWRRSKRASYVSNPICKGCLSCSKDNGCSRCQQKLFFFLRREGMRQYGECLHSCPSGYYGHRAPDMNRCARCRIENCDSCFSKDFCTKCKVGFYLHRGRCFDECPDGFAPLEETMECVEGCEVGHWSEWGTCSRNNRTCGFKWGLETRTRQIVKKPVKDTILCPTIAESRRCKMTMRHCPGGKRTPKAKEKRNKKKKRKLIERAQEQHSVFLATDRANQ",expansion of Ki67 expression,–,–,–,less significant as compared to the effect of R2M3-26
